assay: yeast display, Sf9 membrane polyspecificity reagent, FACS + sequencing; frameworks hold sequencing errors
Method in brief: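 Nanobodies came from a synthetic yeast display library in Saccharomyces cerevisiae BJ5465, induced with galactose for 36–48 hours and stained for 1 hour at 4 °C with 10% biotinylated, detergent-solubilized Sf9 membrane reagent. Cells were enriched on streptavidin microbeads and then FACS-sorted, with low and high (top ~1%) gates set on anti-HA fluorescence for expression and streptavidin fluorescence for reagent binding. Each polyreactivity label reflects the gate a clone came from. Genes were amplified by colony PCR, sequenced by MiSeq 2 × 250 and filtered by CDR length.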

| Sequence | polyreactivity (PSR sort gate) |
| --- | --- |
| QVQLVESGGGLVQAGGSLRLSCAASGFIFITVNAMGWYRQAPGKEREFVAAITRSGTGTYYADSVKGRFTISRDNAKNTVYLQMNSLKPVDTAVYYCAADATSTGAYDYWGQGTQVTVSS | low polyreactivity |
| QVQLVESGGGLVQAGGSLRLSCAASGFIFITYAMGWYRQAPGKEMELVAAITYSDGSTYYADSVKGRFTISRDNAKNTVYLQMNSLKPEDTAVYYCAADSSTFPADYYWGKGTQVTVSS | low polyreactivity |
| QVQLVESGGGLVQAGGSLRLSCAASGFIFIVNAMGWYRQAPGKERELVATISSSGDITRYADSVKARFTISRDNAKNTVYLQMNSLKPEDTAVYYCAARLWTGYWGQGTQVTVSS | high polyreactivity |
| QVQLVESGGGLVQAGGSLRLSCAASGFIFIYNAMGWYRHAPGKERELVATINWSGGDSTYYADSVKGRFTISRDKAKNTVSLQMNSLKPEDTSVYYCATLSWYQQAYDYWGQGTQVTVSS | low polyreactivity |
| QVQLVESGGGLVQAGGSLRLSCAASGFIFIYNAMGWYRQAPGKERELVAAISRSGGSTYYADSVKGRFTISRDNAKNTVYLHMNSLKPEDTAVYYCNARPGSRYYGYRLYYYWGQGTQVTVSS | high polyreactivity |
| QVQLVESGGGLVQAGGSLRLSCAASGFIFIYNAMGWYRQAPGKERELVAAITGSDGGTFYADSVKGRFTISRDNAKNTVYLQMNSLKPEDTAVYYCNADIVGFQWGYDYWGQGTQVTVSS | low polyreactivity |
| QVQLVESGGGLVQAGGSLRLSCAASGFIFIYNAMGWYRQAPGKERELVAAITGSDGGTFYADSVKGRFTISRDNAKNTVYLQMNSLKPEDTAVYYCNADNGSRQSRDGYESWGQGTQVTVSS | low polyreactivity |
| QVQLVESGGGLVQAGGSLRLSCAASGFIFKGYAKGWYRQAPGKERELVAAINTSGGSTYYAVSVKGRFTISRDNAKNTVYVQMNSLKPEDTAVYYCNVRNRSRPYLPFWPDDNWGQGTQVTVSS | high polyreactivity |
| QVQLVESGGGLVQAGGSLRLSCAASGFIFKIYAMGWYRQAPGKERELVAAMSSGDNTNYADSVKGRFTISRDNAKNTVYLQMNSLKPEDTAVYYCAADWSPTAASDYWGQGTQVTVSS | high polyreactivity |
| QVQLVESGGGLVQAGGSLRLSCAASGFIFKSNAMGWYRQAPGKERELVAAITRSGGRTYYADSVKGRFTISRDNAKNTVYLQMNSLKPEDTAVYYCNAKLYTGSFDYWGQGTQVTVSS | high polyreactivity |
| QVQLVESGGGLVQAGGSLRLSCAASGFIFKSYAMGWYRQAPGKERELVAAISGRGGSTYYADSVKGRFTISRDNAKNTVYLQMNSLKPEDTAVYYCNVGPSTYYQYDYWGQGTQVTVSS | high polyreactivity |
| QVQLVESGGGLVQAGGSLRLSCAASGFIFKVYAMGWYRQAPGKERELVDAISRSGGSTYYADSVKGRFTISRDHAKNTVYLQMKSLKPEDTAVYYCAADYDVTGDSDYWGQGTQVTVSS | low polyreactivity |
| QVQLVESGGGLVQAGGSLRLSCAASGFIFKWNAMGWYRPAPGKERELVAAISWHGGSTNYADSVKGRFTISRDNAKNTVYLQMNSLKQEDTAVYYCAKQQSPYYPSTLDYWGQGTQVTVSS | high polyreactivity |
| QVQLVESGGGLVQAGGSLRLSCAASGFIFKYYAMGCYRQAPGKERELVAVISRSGGGTYYADSVKGRYTISRDHAKNTVYLQMNSLKTEDTAVYYCAAERSSGFDYWGQGTQVTVSS | high polyreactivity |
| QVQLVESGGGLVQAGGSLRLSCAASGFIFLAYTMGWYRPAPGKERELVAAISTSGGSTYYADSVKGRFTISRDNAKNTVYLQMNILKPEDTAVYYCAARYRWGRYDYWGQGTQVTVSS | high polyreactivity |
| QVQLVESGGGLVQAGGSLRLSCAASGFIFLDYAMGWYRQAPGKERELVAAISRSGGSTYYADSVKGRFTISRDYAKNTVYLQMNSLKPEDTAVYYCAAAFYGGGTWDSYWGQGTQVTVSS | high polyreactivity |
| QVQLVESGGGLVQAGGSLRLSCAASGFIFLENDMGCYRQAPGKERELVASINSGSDTNYADSVKGRFTISRDNAKNTVYLQMNSLKPEDTAVYYCNASYNGVPARYDYWGQGTQVTVSS | low polyreactivity |
| QVQLVESGGGLVQAGGSLRLSCAASGFIFLEYAMGWYRQAPGKERELVAAISARTGSTYYADSVKGRFTISRDNEKNTVYLLMNSLIPEDTAVYYSNKLTWRGEVDYWGHGTQVTVSS | high polyreactivity |
| QVQLVESGGGLVQAGGSLRLSCAASGFIFLGKAMGWYRQAPAKERELVAAISSGGSTYADSVKGRFTISSDNAKNTVYLQMYSLKPEDTAVYYFAVDRAFRAQNYHEYYYWGQGTQVTVSS | low polyreactivity |
| QVQLVESGGGLVQAGGSLRLSCAASGFIFLGYAMGWYRQAPGKERELVAAISSDSDTNYADSVKGRFTISRDNAKNTVYLQMNSLKPEDTAVYYCNADIDSYREMDYWGQGTQVTVSS | low polyreactivity |
| QVQLVESGGGLVQAGGSLRLSCAASGFIFLGYGMGWYRQAPGKEREFVAGISWSGGSTYYADSVKGRFTISRDNAKNTVYLQMNSLKPEDTAVYYCNAVVFWGGGDYYWGQGTQVTVSS | low polyreactivity |

| Sequence | polyreactivity (PSR sort gate) |
| --- | --- |
| QVQLVESGGGLVQAGGSLRLSCAASGFIFLHYAMGWYRQAPGKERELVAAISSSGGRTYYADSVKGRFSISRDNAKNTVYLQMNSLKPEDTAVYYCAAEAYPWYVPYDYWGQGTQVTVSS | high polyreactivity |
| QVQLVESGGGLVQAGGSLRLSCAASGFIFLSYAMGWYRQAPGKESELVAAITSNGGSTYYADSVKGRFTISRDNAKNTVYLQMNSLKPEDTAVYYCSADSGYGPYYYWGQGTQVTVSS | high polyreactivity |
| QVQLVESGGGLVQAGGSLRLSCAASGFIFLYYAMGWNTQSPGKERELVADISRGADTKYADSVKGRFTISRDNAKNTVYLQMNSLKPEDTAVYYCATDITTFWFPYPGVELGYWGQGSQVTVSS | low polyreactivity |
| QVQLVESGGGLVQAGGSLRLSCAASGFIFNFYAMGWYRQAPGKERELVAAISRSGGRTYYADSVKGRFTISRDNAKNTVYLQMNSLKPEDTAVYYCAAVTKSLYGYDYWGQGTQVTVSS | low polyreactivity |
| QVQLVESGGGLVQAGGSLRLSCAASGFIFNGNVMGWYRQAPGKERELVAAITVSGGSTRYADSVKGRFTISRDNAKNTVYLQMNSLKPEDTAVYYCAARTRYLSYGWIHEYYYWGQGTQVTVSS | high polyreactivity |
| QVQLVESGGGLVQAGGSLRLSCAASGFIFNHNAMGWYRQAPGKERELVAAISSGGRTYYADSVKGRFTISRDNAKNTVYLQMNSLKPEDTAVYYCAKDTKYSSQYGKYGYWGQGTQVTVSS | low polyreactivity |
| QVQLVESGGGLVQAGGSLRLSCAASGFIFNHYAMGWYRQAPGKEREFVAAISWSGGSTYYADSVKGRFTISRDNAKNTVYLKMNSLKPEDTAVYYCAASYNGLWHGDYNYWGQGTQVTVSS | low polyreactivity |
| QVQLVESGGGLVQAGGSLRLSCAASGFIFNKYAMGWYRQAPGKERQLVATIRRDGSTNYADSVKGRFTISRDNAKNTVYLQMNSLKPEDTAVYYCAVRPYYWSRDYYWGQGTQVTVSS | high polyreactivity |
| QVQLVESGGGLVQAGGSLRLSCAASGFIFNNYAMGWYRQAPGKERELVAAITWSGGGTYYADSVKGRFTISRDNAKNTVYLQMTSLKAEDTAVYYCAVYYPAYRDEYWGQGTQVTVSS | high polyreactivity |
| QVQLVESGGGLVQAGGSLRLSCAASGFIFNQYAMGWYRQAPGKERELVAAIRGSGGRTYYADSVKGRFTISRDNAKNTVYFQMNSLKPEDTAVYYCAKQRFGYRRSPGDYWGQGTQVTVSS | high polyreactivity |
| QVQLVESGGGLVQAGGSLRLSCAASGFIFNRNAMGWYRQAPGKERELVAGINSGGTTKYADSVKGRFTISRDNAKNTVYLQMISLIPEDTAVYYCAKPLNYRYYVGYPLDYWGQGTQVTVSS | low polyreactivity |
| QVQLVESGGGLVQAGGSLRLSCAASGFIFNRYAMGWYRQAPGKERELVAAITASGGSTYYADSVKGRFTISRDNAKNTVYLQMNSLKQEDTAVYYCAARAWLYSRRYGYWGQGTQVTVSS | high polyreactivity |
| QVQLVESGGGLVQAGGSLRLSCAASGFIFNRYTMGWYRQAPGKERELVAAITGRGGSTYYADSVKGRFSISRDNAKNTVYLQMNSLKPEDTAVYYCAAAPAYRYASYTYGYDSWGQGTQVTVSS | high polyreactivity |
| QVQLVESGGGLVQAGGSLRLSCAASGFIFPFNAMGWYRQAPGKERELVAAITSGGSTYYADSVKGRFTISRDNAKNTVYLQMNSLKPEDTAVYYCAKSWDRIGIWYRLEYWGQGTQVTVSS | low polyreactivity |
| QVQLVESGGGLVQAGGSLRLSCAASGFIFPGNAMGWYRQAPGKEREFVAVISGSGGSTYYADSVKGRFTISRDNAKNTVYLQMNSLKPEDTAVYYCAAVYRDKSQRADYDYWGQGTQVTVSS | high polyreactivity |
| QVQLVESGGGLVQAGGSLRLSCAASGFIFPGNARAWYRQAPGKERELVAAISNSGSRTYYADSVKGRFTISRDNAKNTVYLQMNSLKPEDTAVYYCNADVPNRGWPYDYWGQGTQVTVSS | low polyreactivity |
| QVQLVESGGGLVQAGGSLRLSCAASGFIFPLYAMGWYRKAPGKERELVAAITWRGDTTSYADSVKGRFTISRDNAKNTVYLQMNSLKPEDTAVYYCAAEFYDWWYYGGGEYWGQGTQVTVSS | high polyreactivity |
| QVQLVESGGGLVQAGGSLRLSCAASGFIFPLYTMGWYRQAPGKERELVAANSVTGGSTYYADSVKGRFTISRDNAKNTVYLQMNSLKPEETAVYYCNAYLFFLNRVWSFDYWGQGTQVTVSW | high polyreactivity |
| QVQLVESGGGLVQAGGSLRLSCAASGFIFPQNAMGWYRQAPGKERELVAAIRWSGGRTYYADSVKGRFTISRDNAKNTVYLQMNSLNPEDTAVYYCAADVRQRGIYGPGPHYYWGQGTQVTVSS | high polyreactivity |
| QVQLVESGGGLVQAGGSLRLSCAASGFIFPQYAKGWYRQAPGKERELVAAISTGGGSTYYADSVKGRFTISRDNAKNTVYLQMNSLKPEDTAVYYCNARPKYDSGHYYWGQGTQVTVSS | high polyreactivity |

Source: the nanobody polyreactivity screen of Harvey et al. (2022)
